Values joined by “and” are separate entries in the source; they are usually repeats but may differ in a detail not shown here. Identical values can stand only once.
Assays:
[1] = test system: occludin, ZO-1, nectin-1, E-cadherin or filaggrin; experiment: qPCR of other barrier proteins after claudin-1 siRNA in PHK; assay type: cell-based, human; details: siRNA 100 nM, n=5/group
Method: QPCR was performed using the iScript™ cDNA Synthesis kit and iQ™ SYBER Green Supermix assay system (Bio-Rad Laboratories). All PCR amplifications were carried out in triplicate on an iQ5 Multicolor real-time PCR detection system (Bio-Rad). Primers were designed and synthesized by Integrated DNA Technologies (Table 1). Relative gene expression was calculated by using the 2^−ΔΔCt method. Livak and Schmittgen, “Analysis of Relative Gene Expression Data Using Real-Time Quantitative PCR and the 2(−Delta Delta C(T)) Method,” Methods 25:402-8 (2001), which is hereby incoporated by reference in its entirety. The normalized Ct value of each sample was calculated using GAPDH as an endogenous control gene.
(§1) PHK were plated on glass coverslips at 2-3×10^5 cells/well in a 6-well plate or at 2-3×10^4 cells/filter in Transwell insert (Costar; PET membrane, 0.4 μm pore size, 6.5 mm insert) in Keratinocyte-SFM without antibiotics. The next day after plating, cells were transfected with claudin-1 specific or control (scrambled) siRNAs (Santa Cruz) using Lipofectamine™ 2000 transfection Reagent (Invitrogen). TEER and permeability experiments were conducted 48 hours after PHK were switched to differentiation media.

[2] = test system: HSV-1 strain F; experiment: HSV-1 fluorescent-focus assay in PHK; assay type: cell-based, Herpes Simplex Virus (HSV)-1; details: siRNA 100 nM, MOI 0.1, 24 h, n=6
Method: Infection studies were performed using the highly virulent HSV-1 strain F (provided by Dr. D.C. Johnson). Twenty-four to 48 h post-transfection with 100 nM claudin-1 or control siRNA, the cells were differentiated in DMEM with 10% heat-inactivated FBS for 24 h. Cells were washed twice with HBSS and infected with HSV-1 strain F at a multiplicity of infection (MOI) of 0.1 in DMEM containing 1% heat-inactivated FBS at 37° C., with rocking every 15 min. After 2 h, the viral inoculum was removed, and the cells were washed 2× with HBSS and incubated in DMEM containing 5% HI-FBS and 0.4% human-γ-globulin (Sigma; final concentration 0.5 mg/ml) for 24 hr to neutralize any extracellular virus.
HSV-infected PHK were washed 2× with PBS and fixed in 4% formaldehyde/PBS for 20 min at room temperature. A polyclonal rabbit anti-HSV-1 (Dako) antibody diluted 1:500 in PBS/1% BSA was placed on the PHK for 1 h at 37° C. followed by Alexa Fluor 488 donkey-anti-rabbit IgG H+L (1:1000, Molecular Probes) and 4′,6-diamidino-2-phenyl-indole, dihydrochloride (DAPI) (1:10,000, Molecular Probes). Coverslips were mounted onto slides with SlowFade (Molecular Probes). […] Images were stored in Portable Network Graphics (PNG) format and analyzed computationally to objectively quantify differences in focal forming units (FFU). […] Cell density was calculated by counting the number of DAPI labeled nuclei, assigned to the blue channel. Images were analyzed using MATLAB to enumerate FFU, and total cell number. […]
The MOI was chosen based on findings from viral titration (0.01 to 10 MOI) studies on differentiated and undifferentiated PHK, respectively, used as negative and positive controls. […] For each sample, six random fields were captured at identical acquisition settings and analyzed computationally to objectively quantify differences in focal forming units (FFU). […] An average of 4.8±0.7 FFU/field were counted in CLDN1 knockdown PHK, while only 2.5±0.5 FFU/field were detected in the control cells (P=0.05; n=6; FIG. 15C). Adapted Fluorospot software was used to semi-quantify differences in dimensions of each FFU. […]

[3] = test system: primary human keratinocytes (PHK); experiment: Click-iT EdU proliferation assay in PHK; assay type: cell-based; details: n=3
[4] = test system: primary human keratinocytes (PHK); experiment: Trans Epithelial Electric Resistance (TEER) in PHK monolayers; assay type: cell-based
Method: PHK were plated at a subconfluent density of 2.5−3×10^4 cells/filter in Transwell insert and cultured in Keratinocyte-SFM media until confluent. TEER was measured using an EVOMX voltohmmeter (World Precision Instruments, Sarasota, Fla.). The resistance of cell-free filters was subtracted from each experimental value.
as §1
TEER was measured in PHK as described above. PHK were stimulated with S. aureus-derived peptidoglycan (PGN, 0.2-20 μg/ml, n=3-7) (FIG. 19A), Malp-2 (10-1000 ng/ml, n=3) (FIG. 19B), and Pam3CSK4 a TLR1/2 ligand (0.01-20 μg/ml, n=3-6) (FIG. 19C). Data are presented by analyzing the area under the TEER curve and normalized to the mean values for the control group (media alone)*p<0.05; **p<0.01.

B1: CLDN1 siRNA: claudin-1 specific siRNA (Santa Cruz), a pool of 3 separate strands, SEQ ID NO: 10-15 (nucleic acid)
chain 1: UACAUAGGCAUAGUUCAUGNN
chain 2: CAUGAACUAUGCCUAUGUANN
chain 3: AACGUAUGCAGUUAAUUCCNN
chain 4: GGAAUUAACUGCAUACGUUNN
chain 5: UGAAGAUCUAUGUAUGUGGNN
chain 6: CCACAUACAUAGAUCUUCANN
modifications: chemistry not given here
- mRNA expression of occludin, ZO-1, nectin-1, E-cadherin or filaggrin ([1]; listed as Cldn1 siRNA): no effect
- mRNA expression of occludin, ZO-1, nectin-1, E-cadherin or filaggrin ([1]; listed as claudin-1 siRNA): no changes
- FFU area [2]: 15649±4367 pixels
- HSV-1 focal forming units [2]: 4.8±0.7 FFU/field
- diameter of the major axis of FFU [2]: 207±22 μm and 207±21 μm
- cell proliferation by Click-iT EdU assay ([3]; CLDN1 siRNA, PHK): enhanced cell proliferation
- proliferating cells ([3]; claudin-1 depleted PHK): 21.6±1.4 EdU positive cells/hpf
- reduction in TJ function (electrical resistance and permeability assays) ([4]; claudin-1 siRNA, PHK): ~50%
- TEER ([4]; siRNA 100 nM, 48 hours after switch to differentiation media, n=4): 80.6±6.4 ohms×cm^2
- drop in TEER ([4]; siRNA 100 nM, vs scrambled siRNA): > 50%

Reference: US20130045267A1, “METHODS OF USING AGENTS THAT MODULATE CLAUDIN EXPRESSION” (priority 2010, published 2013)
